According to publication PMC7968930, “A conserved cell division protein directly regulates FtsZ dynamics in filamentous and unicellular actinobacteria” (eLife, 2021):
Blank lines part the entries; values can stand above or below the molecule they belong to.

Key:
[1] = molecular target: SepH-G79P (S. venezuelae), purified, untagged (Streptomyces venezuelae); assay: SEC; 30 µM protein, Superose 12 10/300 GL, buffer P (50 mM HEPES pH 7.2, 50 mM KCl, 5 mM MgCl2); size predicted from MW standards
[2] = molecular target: FtsZ (S. venezuelae), purified, untagged (Streptomyces venezuelae); assay: co-sedimentation; high speed (350,000 x g, 15 min); 3.5 µM FtsZ, 0.6 µM SepH or SepH-G79P, with or without 2 mM GTP, buffer P, 30°C; SDS-PAGE, Coomassie, bands quantified
[3] = molecular target: SepH-NTD (residues 1-186 of S. venezuelae SepH), purified, untagged (Streptomyces venezuelae); assay: SEC; 30 µM protein, Superose 12 10/300 GL, buffer P (50 mM HEPES pH 7.2, 50 mM KCl, 5 mM MgCl2); size predicted from MW standards
[4] = molecular target: SepH-CTD (residues 187-344 of S. venezuelae SepH), purified, untagged (Streptomyces venezuelae); assay: as above
[5] = test system: T1, SepH (Streptomyces venezuelae NRRL B-65442), ORF:b45d4985; assay: EMSA; conditions: 50 mM HEPES/KOH pH 7.2, 50 mM KCl, 5 mM MgCl2, room temperature, 30 min (EMSA 50 ng probe in 20 uL, 0.5x TBE gel; footprinting 40 uL)
T1 sequence: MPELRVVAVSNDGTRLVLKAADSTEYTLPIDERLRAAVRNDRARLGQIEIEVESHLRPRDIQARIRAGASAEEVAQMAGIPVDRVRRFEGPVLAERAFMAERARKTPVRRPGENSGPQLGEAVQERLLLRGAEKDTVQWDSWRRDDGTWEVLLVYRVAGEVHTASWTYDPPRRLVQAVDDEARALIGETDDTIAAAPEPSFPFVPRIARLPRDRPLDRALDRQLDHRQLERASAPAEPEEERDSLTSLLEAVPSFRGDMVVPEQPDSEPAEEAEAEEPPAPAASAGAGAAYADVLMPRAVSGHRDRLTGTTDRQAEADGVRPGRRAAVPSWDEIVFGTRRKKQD

[6] = test system: T1, SepH (Streptomyces venezuelae NRRL B-65442), ORF:b45d4985; assay: DNase I footprinting; conditions: 50 mM HEPES/KOH pH 7.2, 50 mM KCl, 5 mM MgCl2, room temperature, 30 min (EMSA 50 ng probe in 20 uL, 0.5x TBE gel; footprinting 40 uL)
[7] = molecular target: FtsZ (S. venezuelae), purified, untagged (Streptomyces venezuelae); assay: co-sedimentation; high speed (350,000 x g, 15 min); 3.5 µM FtsZ, with or without 0.6 µM SepH, 1 mM GMPCCP, buffer P, 30°C
[8] = molecular target: FtsZ (S. venezuelae), purified, untagged (Streptomyces venezuelae)
[9] = molecular target: SepH (S. venezuelae), purified, untagged (Streptomyces venezuelae); assay: SEC; 30 µM protein, Superose 12 10/300 GL, buffer P (50 mM HEPES pH 7.2, 50 mM KCl, 5 mM MgCl2); size predicted from MW standards
[10] = molecular target: the molecule itself; assay: SEC; SepHMs, Superose 12 10/300 GL, modified buffer P (50 mM HEPES pH 6.8, 100 mM KCl, 5 mM MgCl2); size predicted from MW standards

stoichiometry N [1]: 4
percent of SepH-G79P in the pellet (with FtsZ and GTP) [2]: 50%
Molecule: SepH-G79P (S. venezuelae), purified, untagged (natural protein)

stoichiometry N [3]: 2
Molecule: SepH-NTD (residues 1-186 of S. venezuelae SepH), purified, untagged (domain or fragment)

stoichiometry N [4]: 4
Molecule: SepH-CTD (residues 187-344 of S. venezuelae SepH), purified, untagged (domain or fragment)

Molecule: CCTTCGATCGTCCCTGGTCGGAGCGGCCGGTCGATGATCGAATCGGCGGCTCGGGATGATCACTGCCCGAGTGGGATGCCACCATGCCGACCCATGCGGCGGCTCACTCGAACGGGTCGAACGCGCCGGGGTGCGCGCCCCTCAGGCGCCGTGGGCGCGCCTCTCAGCGGAGAGGACGTGTTCCCCGGGAACGACAAAGCCCCGGTTGGACGGGGGATTCCAACCGGGGCCGATCGCCGTGACGCGAAGGGC (double strand) [vnz_35870 promoter region probe]
binding [5]: no binding
binding [6]: no binding

Molecule: FtsZ (S. venezuelae), purified, untagged (natural protein)
percent of FtsZ in the pellet (with GMPCCP) [7]: 88%
percent of FtsZ in the pellet (with GTP and SepH) [2]: 47%
percent of FtsZ in the pellet (with GTP and SepH-G79P) [2]: 36%
percent of FtsZ in the pellet (with GTP) [2]: 35%

Molecule: GCTGCTCGTCCCCGCGCAGGCGGAACCCGACGACGTCGTCCTGTCCTGGGAGGGGGAGGACGTGCTCGCCGTACGGCTGCCGCAGCTGTCCGAATCCCTCGATCACATCCTGGCGGCGATGGAGCGGCGGCACGGGATGCCACTGGCCGAGCTGGACCGCAAGGCCAAGCAGGAGGCCGTCCGTCTGCTGGAGGCGCGCGGCGCCTTCGCCGTACGCCATGGAGTGGAGACGGTGGCGGGTGCACTCGGTGTCAGCCGC (double strand) [vnz_30075 promoter region probe]
binding [6]: no binding

Molecule: GCGGTCGTCGCCGCGGGCGGAGCCGATGCCCATCAGGGCCGAACCGGCCTCGGACATGACCGACTTGACGTCGGCGAAGTCGAGGTTGATCAGGCCCGGGGTGGTGATGAGGTCGGTGATGCCCTGCACACCGCTCAGCAGCACCTGGTCGGCCGACTTGAAGGCGTCGAGCACGGAGACCTGGCGGTCCGAGATCGACAGGAGCCGGTCGTTGGGGATGACGATGAGGGTGTCGACCTCTTCGCGGAGCTCGGCGATGCC (double strand) [vnz_08520 (ftsZ) internal probe]
binding [5]: no binding

Molecule: SepH (S. venezuelae), purified, untagged (natural protein)
critical concentration of FtsZ from the GTPase rate, with 0.6 µM SepH (1.43 µM without SepH) [8]: 1.11 µM
percent of SepH in the pellet (with FtsZ and GMPCCP) [7]: 98%
stoichiometry N [9]: 4
percent of SepH in the pellet (with FtsZ and GTP) [2]: 96%

B1: SepHMs-6xHis (SepH from M. smegmatis), purified (natural protein, Mycobacterium smegmatis mc2 155, UniProt A0R430 1-276, looked up)
chain: MRELRVVGLDVDGKRIICETADSAEMFTLRVDDRLRAALRGDKVASNQTEIDLEVQSVLRPKEIQAKIRAGASVEQLAAAAGVPVERVERFAHPVLLERARAAELATAAHPVLADGPSVLTLLETVTKALVARGLDPDAVAWDAWRNEDSRWTVQLAWKAGRSDNVAHFRFTPGSHGGLVTASDDAAHQLINPDFARPLRPVAAVPQLEFEAPQPAQPAAPPQPAQAVPTPEPAPAPEQEPEPAPAPAPKRSRKARATVPAWEDVLLGVRSSGTQR
notes: SepH homolog of Mycobacterium smegmatis mc2 155, MSMEG_5685, in pET21b (pSS561); Tetramer predicted from size exclusion chromatography; also called SepHMs-His6; SepH-6xHis; source: E. coli Rossetta (DE3), purified (HisTrap); not shown: His6, C-terminal, kept
stoichiometry N [10]: 4
